# ± gives the standard deviation of the averaged measurements.
# Tested on: VchCAST RNA-guided transposition machinery (E. coli BL21(DE3) host, lacZ target)
# Assay: relative integration efficiency (T-RL orientation) vs wild-type transposon end (log2 (normalized fold change)); transposon end mutated: left end; higher = more efficient transposition
# Description: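 Pooled, barcoded VchCAST (Tn6677) mini-transposon donor libraries; each variable transposon-end sequence sits in a fixed pDonor mini-transposon context (10-bp barcode and cargo not included). Left- or right-end libraries were co-transformed with pEffector (TniQ-Cascade, TnsABC, lacZ crRNA, T7, 0.1 mM IPTG) into E. coli BL21(DE3) and grown 18 h at 37 C. T-LR and T-RL junction amplicons were sequenced; output/input barcode fold change was normalised to the mean of four wild-type barcodes and log2-transformed. Two biological replicates; zero-count/undetected variants carry floor values (-10 / -15), censored here. Barcode uncoupling by PCR recombination adds noise.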
row,Sequence,relative integration efficiency (log2)
1,AATGTTGTTGATGCAACCATAAAGTGATATTTATTGACGGCTAGCTCAGTCCTAGGTATAGTGCTAGCAACCATATATTGATATCTCACAAAACAACCATAAGTTGATATTTTTGTGAATCGAGTATTTCAGCAAAACTACTGCAGTAAGAA,-6.66 ± 0.33
2,AATGTTGTTGATGCAACCATAAAGTGATATTTAATAATTATTTATAATCAGCAACCAACCATATATTGATATCTCTTAACCACAAAAACAAAACAACCATAAGTTGATATTTTTGTGAATCGAGTATTTCAGCAAAACTACTGCAGTAAGAA,-5.89 ± 1.6
3,AATGTTGTTGATGCAACCATAAAGTGATATTTAATAATTATTTCAACCATAAAGTGATATTTAACTTCAACCATATATTGATATCTCACAAAACAACCATAAGTTGATATTTTTGTGAATCGAGTATTTCAGCAAAACTACTGCAGTAAGAA,-6.43 ± 0.89
4,AATGTTGTTGATGCAACCATAAAGTGATATTTATTGACAGCTAGCTCAGTCCTAGGTATAATGCTAGCAACCATATATTGATATCTCACAAAACAACCATAAGTTGATATTTTTGTGAATCGAGTATTTCAGCAAAACTACTGCAGTAAGAA,-8.14 ± 0.72
5,AATGTTGTTGATGCAACCATAAAGTGATATTTAATAATTATTTCAACCATATATTGATATCTCATAATCAGCAACTTAACCACAAAAACAAAACAACCATAAGTTGATATTTTTGTGAATCGAGTATTTCAGCAAAACTACTGCAGTAAGAA,-5.79 ± 0.8
6,AATGTTGTTGATGCAACCATAAAGTGATATTTAATAATTATTTATACAACCATATATTGATATCTCACAAAACAACCATAAGTTGATATTTTTGTGAATCGAGTATTTCAGCAAAACTACTGCAGTAAGAAAGTTACTTCGTGGTATGGGAG,-6.01 ± 0.81
7,AATGTTGTTGATGGTTGGTATTTCACTATAAATATAATTATTTATAATCAGCAACTTAACCACAAAAGTTGGTATATAACTATAGAGACAAAACAACCATAAGTTGATATTTTTGTGAATCGAGTATTTCAGCAAAACTACTGCAGTAAGAA,-8.28 ± 1.3
8,AATGTTGTTGATGCAACCATAAAGTGATATTTAATAATTATTTATAATCAGCAACTTACAACACCCCACCAACGCGCGGTCGCGAGACACCCCACCAACGCCTGGTCGCGGGGGTGTCCGATCTGATTTCAGCAAAACTACTGCAGTAAGAA,-5.66 ± 1.2
9,AATGTTGTTGATGGTTGGTATTTCACTATAAATATAATTATTTATAATCAGCAACTTAACCACAAAACAACCATATATTGATATCTCACAAAAGTTGGTATTCAACTATAAAATGTGAATCGAGTATTTCAGCAAAACTACTGCAGTAAGAA,-8.45 ± 0.29
10,AATGTTGTCAACCATAAAGTGATATTTAATAATTATTTATAATCAGCAACTTAACCACAAAACAACCATATATTGATATCTCACAAAACAACCATAAGTTGATATTTTTGTGAATCGAGTATTTCAGCAAAACTACTGCAGTAAGAAAGTTA,-8.1 ± 1.2
11,AATGTTGTTGATGCAACCATAAAGTGATATTTAATAATTATTTATAATCCAACCATATATTGATATCTCAGCAACTTAACCACAAAAACAAAACAACCATAAGTTGATATTTTTGTGAATCGAGTATTTCAGCAAAACTACTGCAGTAAGAA,-5.59 ± 1.3
12,AATGTTGTTGATGCAACCATAAAGTGCGCGGGCATAATTATTTATAATCAGCAACTTAACCACAAAACAACCATATATTGCGCGAGAACAAAACAACCATAAGTTGCGCGGGGTGTGAATCGAGTATTTCAGCAAAACTACTGCAGTAAGAA,-7.87 ± 2.2
13,AATGTTGTTGATGCAAAACGCCCTGTCGCGGGCCGCCGGCGGGCGCCGACTACCAGGCCAACACCCCACCAACGCGCGGTCGCGAGACACCCCACCAACGCCTGGTCGCGGGGGTGTCCGATCTGATTTCAGCAAAACTACTGCAGTAAGAA,< -10
14,AATGTTGTTGATGCAACCATAAAGTGATATTTAATAATTATTTATAATCAGCAACAACCATATATTGATATCTCCTTAACCACAAAAACAAAACAACCATAAGTTGATATTTTTGTGAATCGAGTATTTCAGCAAAACTACTGCAGTAAGAA,-6.46 ± 1.4
15,AATGTTGTTGATGCAACCATAAAGTGATATTTAATAATTATTTATAATCAGCAACCATATATTGATATCTCCAACTTAACCACAAAAACAAAACAACCATAAGTTGATATTTTTGTGAATCGAGTATTTCAGCAAAACTACTGCAGTAAGAA,-6.03 ± 0.52
